Molecular target: T1, full-length protein LRP8 expressed in N2A cells transfected with a cDNA coding for LRP8 (Origene, Cat. No. … (human, UniProt Q14114 33-963))
T1 construct: Tested as a lysate of transfected N2A cells in SDS-PAGE and Western blot, not on intact cells; also called LRP8-FL; APOER2
T1 sequence: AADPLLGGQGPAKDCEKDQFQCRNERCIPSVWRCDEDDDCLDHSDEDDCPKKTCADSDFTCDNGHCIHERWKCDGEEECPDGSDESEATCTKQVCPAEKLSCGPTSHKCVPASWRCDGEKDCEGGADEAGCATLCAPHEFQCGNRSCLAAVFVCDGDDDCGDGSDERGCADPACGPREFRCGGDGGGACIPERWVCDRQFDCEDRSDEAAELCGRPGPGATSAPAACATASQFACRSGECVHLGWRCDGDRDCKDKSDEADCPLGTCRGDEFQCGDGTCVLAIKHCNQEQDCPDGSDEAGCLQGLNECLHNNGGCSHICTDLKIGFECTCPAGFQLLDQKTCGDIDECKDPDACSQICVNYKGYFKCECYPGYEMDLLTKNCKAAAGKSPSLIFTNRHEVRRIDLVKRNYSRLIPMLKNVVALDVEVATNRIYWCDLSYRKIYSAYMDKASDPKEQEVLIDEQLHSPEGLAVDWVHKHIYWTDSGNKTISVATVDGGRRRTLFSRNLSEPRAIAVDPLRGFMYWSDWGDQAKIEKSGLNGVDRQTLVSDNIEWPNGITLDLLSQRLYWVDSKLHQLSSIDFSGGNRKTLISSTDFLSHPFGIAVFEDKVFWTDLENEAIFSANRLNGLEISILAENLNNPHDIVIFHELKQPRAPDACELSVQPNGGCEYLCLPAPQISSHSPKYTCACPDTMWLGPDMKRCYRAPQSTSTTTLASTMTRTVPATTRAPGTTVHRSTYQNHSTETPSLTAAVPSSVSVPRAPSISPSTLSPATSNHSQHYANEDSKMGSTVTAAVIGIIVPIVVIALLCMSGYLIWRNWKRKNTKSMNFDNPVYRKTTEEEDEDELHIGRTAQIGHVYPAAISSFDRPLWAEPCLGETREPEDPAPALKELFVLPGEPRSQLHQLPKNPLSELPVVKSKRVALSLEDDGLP
Assay: Western blot, lysate of LRP8-transfected N2A cells, antibody at 1 µg/ml
Description: The two lines of hybridomas described above develop antibodies that recognize both the entire protein LRP8 and its different C-terminal fragments. […] I.D. 5 and 9 with a cysteine at the C-terminus are able to produce antibodies that recognize both the protein LRP8 as such, and the fragments of 18-25 kDa, which are substrates of γ-secretase and different shorter fragments of 8-16 kDa, collectively defined as LICDs-derived intracellular domain LRP8, similar to the AICDs fragments derived from the cleavage of AβPP by γ-secretase or by other proteases such as those previously specified. The polyclonal antibodies (rabbit) GS1 and GS2 were made using SEQ I.D. 5 and SEQ I.D. 9, respectively. […] In lane 8 there is a negative control whereas in lane 9 the hybridization was performed using a commercial antibody vs LRP8 (Sigma Aldrich Cat No. SAB1306331) as a positive control. All the antibodies were used at the final concentration of 1 µg/ml. It is therefore clear that both the polyclonal antibodies and the antibodies of clones of hybridomas according to the present invention are able to identify not only the full-length protein LRP8 and the fragments from 18-25 kDa, but also advantageously the fragments 8-16 kDa, as indicated by the boxes in FIG. 3. […]

binding result: binds
B1: monoclonal antibody of hybridoma 25F7F1 (antibody, V domains shown)
VH: EVQLQQSGPVLVKPGASVKMSCKASGYKFTDHFMNWVKKNHGKSLEWIGVINPYNGGTRLNPKFKGKATLTVDKSSSTVYMELNSLTFEDSAVYYCARETIDLAWFAYWGQGTLVTVSA
VL: DVLMTQTPPSLPVTLGDQASISCRSSQSIVYSNGKTYLEWYLQKPGQSPKLLMYKVSNRFSGVPDRFSGSGSGTDFTLKISSVEAEDLGIYYCFQGSHVPLTFGAGTKLELK
notes: Mouse (BALB/c) hybridoma monoclonal; also called antibody produced by 25F7F1 mouse hybridomas
